Substrate: CCn1c(=NN=c2sc3cc(S(=O)(=O)O)ccc3n2CC)sc2cc(S(=O)(=O)O)ccc21
Experiment: purified protein
Assay type: biochemical, Pleurotus sapidus
Settings: 100 µM H2O2, 25 mM MnSO4, optimal pH and temperature (pH 3.5, 40 °C)

B1: PsaPOX (DyP-type peroxidase of Pleurotus sapidus) (Pleurotus sapidus) (protein)
chain: MTTPAPPLDLNNIQGDILGGLPKKTETYFFFDVTNVDRFKANMTQFIPHVKTSAGIVKDREAIKEHKRQKRPGLVPMAAVNVSFSHLGLQKLGITDDLSDSSFTTGQRKDAEVLGDPGTKNGDTFTPAWEAPFLKDIHGVIFVAGDCHASVHKKLDEIKHIFGVGTSHASISEVTHVRGDVRPGQVSAHEHFGFLDGISNPAVDQFDQNPFPGQDSIRPGFILAKENGDSRAAARPDWAKDGSFLTFRYLFQMVPEFDDFLESNPIVLPGLSRKEGSELLGARIVGRWKSGAPIEITPLKDDPKLGADAQRNNNFDFGDSLVRGDQTKCPFAAHIRKTYPRNDLEGPPLNADIDNRRIIRRGIQFGPEVTSQEHHDKKTHHGRGLLFVCYSSSIDDGFHFIQQSWANAPNFPVNAVTSAGPIPPLDGVIPGFDAIIGQKVGGGIRQISGTNPNDPTTNITLPDQDFVIPRGGEYFFSPSISALKTKFAAGVASSAPQAQAPIST
notes: full-length ORF (1512 bp, 504 aa), C-terminal 6x His tag kept, S. cerevisiae alpha-factor secretion signal (pPIC9), Komagataella pfaffii GS115, Ni-NTA; monomeric
Km: 37 ± 4 µM | kcat/Km: 184000 ± 5000 M⁻¹ s⁻¹

From PMC7181223, “A DyP-Type Peroxidase of Pleurotus sapidus with Alkene Cleaving Activity” (Molecules, 2020)
